{
  "source": "paper PMC3471918",
  "about": "(PLoS ONE, 2012)",
  "molecules": {"B1": {"name": "rat insulin degrading enzyme (IDE), wild type (enzyme, UniProt P35559 1-1019, looked up)", "chain": "MNNPAIQRIEDHIVKSPEDKREYRGLELANGIKVLLISDPTTDKSSAALDVHIGSLSDPPNIPGLSHFCEHMLFLGTKKYPKENEYSQFLSEHAGSSNAFTSGEHTNYYFDVSHEHLEGALDRFAQFFLCPLFDASCKDREVNAVDSEHEKNVMNDAWRLFQLEKATGNPKHPFSKFGTGNKYTLETRPNQEGIDVREELLKFHSTYYSSNLMAICVLGRESLDDLTNLVVKLFSEVENKNVPLPEFPEHPFQEEHLKQLYKIVPIKDIRNLYVTFPIPDLQQYYKSNPGHYLGHLIGHEGPGSLLSELKSKGWVNTLVGGQKEGARGFMFFIINVDLTEEGLLHVEDIILHMFQYIQKLRAEGPQEWVFQECKDLNAVAFRFKDKERPRGYTSKIAGKLHYYPLNGVLTAEYLLEEFRPDLIDMVLDKLRPENVRVAIVSKSFEGKTDRTEQWYGTQYKQEAIPEDVIQKWQNADLNGKFKLPTKNEFIPTNFEILALEKDATPYPALIKDTAMSKLWFKQDDKFFLPKACLNFEFFSPFAYVDPLHCNMAYLYLELLKDSLNEYAYAAELAGLSYDLQNTIYGMYLSVKGYNDKQPILLKKITEKMATFEIDKKRFEIIKEAYMRSLNNFRAEQPHQHAMYYLRLLMTEVAWTKDELKEALDDVTLPRLKAFIPQLLSRLHIEALLHGNITKQAALGVMQMVEDTLIEHAHTKPLLPSQLVRYREVQLPDRGWFVYQRRNEVHNNCGIEIYYQTDMQSTSENMFLELFCQIISEPCFNTLRTKEQLGYIVFSGPRRANGIQGLRFIIQSEKPPHYLESRVEAFLITMEKAIEDMTEEAFQKHIQALAIRRLDKPKKLSAECAKYWGEIISQQYNYDRDNIEVAYLKTLSKDDIIKFYKEMLAVDAPRRHKVSVHVLAREMDSCPVVGEFPSQNDINLSEAPPLPQPEVIHNMTEFKRGLPLFPLVKPHINFMAAKL", "notes": "Insulin degrading enzyme, rat; EC 3.4.24.56; also called wild type IDE; native enzyme; source: Sf9 insect cells, purified (HIS-select Ni-NTA agarose)"}},
  "assay_in_all_cases": "AUC; sedimentation velocity, 4°C, 40,000 rpm, 50 mM Tris pH 7.4, absorbance at 280 nm, c(s,ff0) distributions by SEDFIT corrected to 20,w; monomer, dimer and higher oligomers",
  "key": {"[1]": {"target": "cysteine-free rat insulin degrading enzyme (all twelve cysteines converted to serines) (rat) (UniProt P35559)"}, "[2]": {"target": "rat insulin degrading enzyme C904S (rat) (UniProt P35559)"}, "[3]": {"target": "the molecule itself"}},
  "data": [
    {"molecule": "cysteine-free rat insulin degrading enzyme (all twelve cysteines converted to serines) (from UniProt P35559 1-1019)", "values": [
      {"measurement": "fold decrease in dimer content against wild type IDE", "setting": "[1]", "result": 2, "unit": "fold"}
    ]},
    {"molecule": "rat insulin degrading enzyme C904S (from UniProt P35559 1-1019)", "values": [
      {"measurement": "stoichiometry N", "setting": "[2]", "result": 2}
    ]},
    {"molecule": "B1", "values": [
      {"measurement": "stoichiometry N", "setting": "[3]", "result": 2}
    ]}
  ]
}
